Data from paper PMC10500007.

Assays:
Assay in all cases: BLI; Octet RED96; His-tagged or Avi-tagged minibinder immobilised on Ni-NTA or streptavidin tips, dipped into titrations of integrin; association 900 s, dissociation 1200 s
[1] = target: av6_3 A39K
[2] = target: av6_3 E13TG64R
[3] = target: av6_3 E13TM15RA39KG64R
[4] = target: av6_3 E13TM15RA39K
[5] = target: av6_3 G64R
[6] = target: av6_3 M15RG64R
[7] = target: av6_3 M15R
Chain of av6_3 M15R (main, as listed by the source M15R): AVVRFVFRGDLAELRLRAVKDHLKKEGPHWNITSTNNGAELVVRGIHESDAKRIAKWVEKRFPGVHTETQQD

Chain of av6_3 E13TM15RA39K (main, as listed by the source): as the sequence (main, as listed by the source M15R) above, with E13T, A39K counted along it
Chain of av6_3 G64R (main, as listed by the source G64R): as the sequence (main, as listed by the source M15R) above, with R15M, G64R counted along it
Chain of av6_3 A39K (main, as listed by the source A39K): as the sequence (main, as listed by the source M15R) above, with R15M, A39K counted along it
Chain of av6_3 E13TG64R (main, as listed by the source): as the sequence (main, as listed by the source M15R) above, with E13T, R15M, G64R counted along it
Chain of av6_3 E13TM15RA39KG64R (main, as listed by the source): as the sequence (main, as listed by the source M15R) above, with E13T, A39K, G64R counted along it
Chain of av6_3 M15RG64R (main, as listed by the source): as the sequence (main, as listed by the source M15R) above, with G64R counted along it

Work on “human integrin αvβ6 (soluble, BLI analyte) (from UniProt P06756 31-1048; P18564 22-709) (receptor)” yielded a Kd [1] of 0.64 nM, a koff [1] of 8.16e-05 s⁻¹ and a kon [1] of 127000 M⁻¹ s⁻¹. For the same substance, the Kd [2] was 0.79 nM, the koff [2] was 8.87e-05 s⁻¹ and the kon [2] was 112000 M⁻¹ s⁻¹. The Kd [3] was 0.79 nM, the koff [3] was 8.31e-05 s⁻¹ and the kon [3] was 104000 M⁻¹ s⁻¹. For the same substance, the Kd [4] was 1.08 nM, the koff [4] was 9.1e-05 s⁻¹ and the kon [4] was 84300 M⁻¹ s⁻¹. The Kd [5] was 0.95 nM, the koff [5] was 0.000134 s⁻¹ and the kon [5] was 141000 M⁻¹ s⁻¹. The Kd [6] was 0.74 nM, the koff [6] was 7.71e-05 s⁻¹ and the kon [6] was 104000 M⁻¹ s⁻¹. For the same substance, the Kd [7] was 0.38 nM, the koff [7] was 6.65e-05 s⁻¹ and the kon [7] was 175000 M⁻¹ s⁻¹.
